{"source": "patent US20250171556A1", "about": "(VIRTUOSO BINCO, published 2025)", "binders": {"B1": {"name": "VIR47.V8 (antibody, human IgG1, lambda, V domains shown)", "VH": "EVQLLESGGGLVQPGGSLRLSCAASGFTFSNFAMSWVRQAPGKGLEWVSTISASGGRTFYADSVKGRFTISRDNSKNTLYLQMNSLRAEDTAVYYCAKEGSFGEGVDPWGQGTLVTVSS", "VL": "SYELTQPPSVSVSPGQTARITCSGDALPKKYAYWYQQKSGQAPVLVIYEDNKRPSGIPERFSGSSSGTMATLTISGAQVEDEADYYCYSTDISGNHWVFGGGTKLTVLG", "notes": "Bivalent monospecific parental anti-CD47 antibody; also called parental CD47 antibody VIR47.V8; anti-CD47 bivalent antibody (VIR47.V8)"}, "B2": {"name": "CD47×EpCAM_v5 (bispecific antibody, human IgG1, lambda)", "heavy": "not shown", "light": "SYELTQPPSVSVSPGQTARITCSGDALPKKYAYWYQQKSGQAPVLVIYEDNKRPSGIPERFSGSSSGTMATLTISGAQVEDEADYYCYSTDISGNHWVFGGGTKLTVLGQPKAAPSVTLFPPSSEELQANKATLVCLISDFYPGAVTVAWKADSSPVKAGVETTTPSKQSNNKYAASSYLSLTPEQWKSHRSYSCQVTHEGSTVEKTVAPTECS", "scFv": "not shown", "notes": "Three-chain knob-into-hole bispecific: anti-CD47 Fab arm (VIR47.V8) and anti-EpCAM scFv arm (Mab002-11), human IgG1 backbone; also called anti-CD47×EpCAM bispecific antibody"}, "B3": {"name": "CD47×EpCAM_v10 (bispecific antibody, human IgG1, lambda)", "heavy": "not shown", "light": "B2 light", "scFv": "not shown", "notes": "Three-chain knob-into-hole bispecific: anti-CD47 Fab arm and anti-EpCAM scFv arm (Mab001-12)"}, "B4": {"name": "CD47×EpCAM_v11 (bispecific antibody, human IgG1, lambda)", "heavy": "not shown", "light": "B2 light", "scFv": "not shown", "notes": "Three-chain knob-into-hole bispecific: anti-CD47 Fab arm and anti-EpCAM scFv arm (Mab002-8)"}, "B5": {"name": "CD47×EpCAM_v9 (bispecific antibody, human IgG1, kappa)", "heavy": "not shown", "light": "DIQLTQSPSSLSASVGDRVTFTCRASQSIGTSLHWYQQKPGKAPKLLIKYASESISGIPSRFSGSGSGTDFTLTISSVQPEDFATYYCQQSNSWPYTFGQGTKLEIKRTVAAPSVFIFPPSDEQLKSGTASVVCLLNNFYPREAKVQWKVDNALQSGNSQESVTEQDSKDSTYSLSSTLTLSKADYEKHKVYACEVTHQGLSSPVTKSFNRGEC", "scFv": "not shown", "notes": "Three-chain knob-into-hole bispecific: anti-EpCAM Fab arm and anti-CD47 scFv arm"}}, "key": {"CD47 on human cells [1]": {"target": "T1, CD47 on human cells (human, UniProt Q08722 19-323)", "T1 construct": "whole, on cells; Endogenous CD47 on cells; also called CD47 on Raji cells; CD47 on HCT-15 cells", "assay": "flow cytometry, blocking of SIRPα-mIgG2a fusion protein (0.2 µg/mL) binding to CD47 on Raji cells (EpCAM-/CD47+), inhibition (%)", "description": "(§1) Tumor cells were harvested, centrifuged, and then resuspended in FACS buffer (PBS plus 2% FBS) at a concentration of 2×10⁶ cells/mL. 100 μL of the cell suspension was dispensed into each well of a 96-well plate. The plate was centrifuged for 5 min and 300×g, and the supernatants were discarded. […] Then, the plates were washed twice with FACS buffer and incubated for 1 hour at 4° C. in the dark with 100 μL of Alexa Fluor 488 donkey anti-Mouse IgG (H+L) secondary antibody (Invitrogen, Cat #A21202, 1:1000). After washing twice with FACS buffer, the plates were resuspended with 300 μL FACS buffer and analyzed by flow cytometry."}, "recombinant human CD47 [2]": {"target": "T2, recombinant human CD47 (human, UniProt Q08722 19-139, limits assumed)", "T2 construct": "Recombinant protein for ELISA coating; also called human CD47 recombinant protein", "assay": "ELISA, plate coated with recombinant human CD47, detection with peroxidase anti-human IgG (Fab specific), OD450", "description": "(§2) A 96-well plate was coated overnight at 4° C. with 1 μg/mL recombinant human CD47 or human EGFR. After washing 3 times, the plate was blocked with 300 μL 1% BSA in PBST at 37° C. for 1 hour. Serially diluted antibodies were added and incubated at 37° C. for 1 hour. The plate was then washed 4 times with PBST and incubated with 1:5000 diluted peroxidase labeled goat anti-human IgG (Fab specific) secondary antibody (Sigma, Cat #A0293) for 1 hour at 37° C. The plate was washed again 4 times with PBST, incubated with 3,3′,5,5′-tetramethylbenzidine (TMB) substrate for 15 min at room temperature, terminated with 1N HCl, and then read at 450 nm."}, "CD47 on human cells [3]": {"target": "T1, CD47 on human cells", "assay": "flow cytometry on a mixture of HCT-15 tumor cells and a 20-fold excess of RBCs, signal on the HCT-15 cells (EpCAM+/CD47+, so both arms of the bispecific can take part), % of selective binding", "protocol": "(§4) Binding of antibodies on mixed tumor cells and RBCs was performed by FACS. In brief, antibodies were incubated with a mixture of HCT-15 tumor cells and RBCs (in 20-fold excess of tumor) for 1 h at 4° C. The binding of antibodies on HCT-15 cells and RBCs were identified by using different FACS markers and detected by flow cytometry."}, "recombinant human EpCAM [4]": {"target": "T3, recombinant human EpCAM (human, UniProt P16422 24-265)", "T3 construct": "Recombinant protein for ELISA coating; also called human EpCAM recombinant protein", "T3 sequence (looked up)": "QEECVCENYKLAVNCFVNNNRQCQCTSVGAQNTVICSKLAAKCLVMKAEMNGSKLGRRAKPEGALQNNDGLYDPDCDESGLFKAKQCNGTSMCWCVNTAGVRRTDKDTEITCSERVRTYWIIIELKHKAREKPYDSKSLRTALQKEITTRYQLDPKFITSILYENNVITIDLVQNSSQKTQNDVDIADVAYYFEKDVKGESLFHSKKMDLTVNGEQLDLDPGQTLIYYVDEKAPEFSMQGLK", "assay": "ELISA, plate coated with recombinant human EpCAM, detection with peroxidase anti-human IgG (Fab specific), OD450", "description": "as §2, with “μg/ml” for “μg/mL”, “EpCAM.” for “EGFR.”, “μl” for “μL”"}, "CD47 on human cells [5]": {"target": "T1, CD47 on human cells", "assay": "flow cytometry competition with SIRPα-mIgG2a; IC50 on HCT-15 cells against IC50 on Raji cells", "description": "as §1"}, "recombinant human CD47 [6]": {"target": "T2, recombinant human CD47", "assay": "ELISA, plate coated with recombinant human CD47, detection with peroxidase anti-human IgG (Fab specific), OD450", "description": "as §2, with “μg/ml” for “μg/mL”, “EpCAM.” for “EGFR.”, “μl” for “μL”", "remark": "listed apart in the source"}, "CD47 on human cells [7]": {"target": "T1, CD47 on human cells", "assay": "flow cytometry, blocking of SIRPα-mIgG2a fusion protein (1 µg/mL) binding to CD47 on HCT-15 cells (EpCAM+++/CD47+), inhibition (%)", "description": "as §1"}, "CD47 on human cells [8]": {"target": "T1, CD47 on human cells", "assay": "flow cytometry competition with SIRPα-mIgG2a (1 µg/mL) on EpCAM-high HCT-15 cells; EpCAM high HCT-15 cells; SIRPα-mIgG2a 1 µg/mL", "description": "as §1"}, "CD47 on human cells [9]": {"target": "T1, CD47 on human cells", "assay": "flow cytometry on a mixture of HCT-15 cells and RBCs; EC50 on HCT-15 cells against EC50 on RBCs", "protocol": "as §4"}, "CD47 on human cells [10]": {"target": "T1, CD47 on human cells", "assay": "flow cytometry competition with SIRPα-mIgG2a (0.2 µg/mL) on EpCAM-negative Raji cells; EpCAM negative Raji cells; SIRPα-mIgG2a 0.2 µg/mL", "description": "as §1"}, "recombinant human CD47 [11]": {"target": "T2, recombinant human CD47", "assay": "ELISA, plate coated with recombinant human CD47, detection with peroxidase anti-human IgG (Fab specific), OD450", "description": "as §2, with “μg/ml” for “μg/mL”, “EpCAM.” for “EGFR.”, “μl” for “μL”\n(§3) ELISA assay was performed as described in EXAMPLE 3.", "remark": "listed apart in the source"}, "recombinant human EpCAM [12]": {"target": "T3, recombinant human EpCAM", "assay": "ELISA, plate coated with recombinant human EpCAM, detection with peroxidase anti-human IgG (Fab specific), OD450", "description": "as §2, with “μg/ml” for “μg/mL”, “EpCAM.” for “EGFR.”, “μl” for “μL”\nas §3", "remark": "listed apart in the source"}}, "note": "Like-named read-outs stand apart in the source and are kept apart here.", "data": [{"binder": "B1", "values": [{"measurement": "IC50 (read off the curve)", "setting": "CD47 on human cells [1]", "value": "~8", "unit": "nM"}, {"measurement": "EC50 (read off the curve)", "setting": "recombinant human CD47 [2]", "value": "~0.05", "unit": "nM"}]}, {"binder": "B2", "values": [{"measurement": "EC50 (read off the curve)", "setting": "CD47 on human cells [3]", "value": "~0.09", "unit": "nM"}, {"measurement": "EC50 (read off the curve)", "setting": "recombinant human EpCAM [4]", "value": "~0.8", "unit": "nM"}, {"measurement": "fold difference of IC50 (HCT-15 cells against Raji cells)", "setting": "CD47 on human cells [5]", "value": "~500", "unit": "fold"}, {"measurement": "EC50 (read off the curve)", "setting": "recombinant human CD47 [6]", "value": "~1", "unit": "nM"}, {"measurement": "IC50 (read off the curve)", "setting": "CD47 on human cells [7]", "value": "~0.3", "unit": "nM"}, {"measurement": "IC50", "setting": "CD47 on human cells [8]", "value": "< 1", "unit": "nM"}, {"measurement": "fold difference of binding EC50 (tumor cells against RBCs)", "setting": "CD47 on human cells [9]", "value": "> 200", "unit": "fold"}, {"measurement": "IC50", "setting": "CD47 on human cells [10]", "value": "> 100", "unit": "nM"}]}, {"binder": "B3", "values": [{"measurement": "EC50 (read off the curve)", "setting": "recombinant human CD47 [11]", "value": "~1", "unit": "nM"}, {"measurement": "EC50 (read off the curve)", "setting": "recombinant human EpCAM [12]", "value": "~9", "unit": "nM"}]}, {"binder": "B4", "values": [{"measurement": "EC50 (read off the curve)", "setting": "recombinant human CD47 [11]", "value": "~0.4", "unit": "nM"}, {"measurement": "EC50 (read off the curve)", "setting": "recombinant human EpCAM [12]", "value": "~0.1", "unit": "nM"}]}, {"binder": "B5", "values": [{"measurement": "EC50 (read off the curve)", "setting": "recombinant human CD47 [11]", "value": "~7", "unit": "nM"}, {"measurement": "EC50 (read off the curve)", "setting": "recombinant human EpCAM [12]", "value": "~0.1", "unit": "nM"}]}]}
